# B1: Deselection peptide 2 … (peptide)
# peptide: MGNSGPTGAV
# Molecular target: C4-aa^1355 monoclonal antibody
# Assay: competitive C4-aa^1355 ECLIA, peptide in solution against the biotinylated coating peptide
# Chain of C4-aa^1355 monoclonal antibody (VH, as listed by the source, chain 1 of 2): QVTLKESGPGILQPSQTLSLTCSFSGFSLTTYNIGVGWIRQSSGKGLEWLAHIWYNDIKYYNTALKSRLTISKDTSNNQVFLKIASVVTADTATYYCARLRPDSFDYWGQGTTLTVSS
# Chain of C4-aa^1355 monoclonal antibody (VL, as listed by the source, chain 2 of 2): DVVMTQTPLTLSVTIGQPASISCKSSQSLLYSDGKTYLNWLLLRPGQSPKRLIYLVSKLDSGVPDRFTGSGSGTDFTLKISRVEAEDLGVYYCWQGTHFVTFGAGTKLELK
binder,measurement,value
B1,signal left at the highest peptide concentration (% B/B0),65%

# Source: US20230030529A1
